Assay results from patent US20250084126A1, “PEPTIDE AND COMPOSITION” (OSAKA UNIVERSITY, priority 2021, published 2025).
No end group written: not given here.

Key:
hDPSCs [1] = test: LDH-assay cytotoxicity to hDPSCs; type: cell-based, human; conditions: for cytotoxicity compared to the control (LDH-assay): 2 days, control PBS, p<0.05; for cytotoxicity, overall conclusion: 0.1-100 μg/ml, versus PBS
Experimental: The hDPSCs were seeded in α-MEM medium containing 10% FBS added with the four peptides at concentrations of 0.1, 1, 10, and 100 μg/ml in a 96 well plate at 5,000 cells/well and cultured at 37° C. for 2 days in a 5% CO2 gas phase. For toxicity test, culture supernatant was collected and LDH-assay was performed using LDH Cytotoxicity Detection Kit (Takara Bio Inc., Shiga). A reagent was added to the collected culture supernatant, and the culture supernatant was placed at 37° C. for 30 minutes in the 5% CO2 gas phase. The absorbance at 405 nm was then measured using the microplate reader (ARVO MX). To further evaluate the proliferative capacity, WST-1-assay was performed using Premix WST-1 Cell Proliferation Assay System (Takara Bio Inc.) after the cells had been continuously cultured for 1 day. The culture was added with a WST-1 reagent and allowed to stand for 30 minutes at 37° C. in the 5% CO2 gas phase. After shaking for 1 minute at room temperature, the absorbance at 450 nm was measured using the microplate reader (ARVO MX). A sample in which the PBS was added to the culture was used as a control, and the number of samples was 6 for each condition.
(§1) The statistical significance test in the above experiment was performed using the One-way ANOVA and Tukey's test for a cytotoxicity test and Kruskal-Wallis-test for a cell proliferation test and a comparison of the amount of formed tertiary dentin in the direct pulp capping experiment, with a critical value of 5%.

hDPSCs [2] = test: Proteome analysis (LC-MS/MS) of proteins expressed by hDPSCs; type: cell-based, human; conditions: 0.1 mM, 7 days
Experimental: The No. 28 peptide or the recombinant S100-A8, the protein from which the No. 28 peptide is derived, was applied to the hDPSCs to compare and quantify the proteins expressed by the hDPSCs by the LC-MS/MS. The hDPSCs were seeded in a 100 mm cell culture dish at 3,000,000 cells/plate in the mineralization induction medium containing each of the samples containing the No. 28 peptide or the S100-A8 at a concentration of 0.1 mM, and cultured at 37° C. in the 5% CO2 gas phase for 7 days. Then, plasma membrane and cytoplasmic proteins were extracted using a plasma membrane protein extraction kit (Cosmo Bio Co., Ltd., Tokyo). As a practical procedure, the hDPSCs were cultured for 7 days, collected with a scraper, added with Buffer A included in the kit, and left on ice for 10 minutes. The hDPSCs were then transferred into a microtube with a filter cartridge included in the kit and centrifuged at 14,000 rpm for 30 seconds. After discarding the cartridge and agitating for 10 seconds, the microtube was centrifuged at 3000 rpm for 1 minute and the supernatant was collected. The collected supernatant was then centrifuged at 14,000 rpm for 30 minutes to extract the cytoplasmic proteins separated in a supernatant and the plasma membrane proteins separated in pellet. As a control, the hDPSCs cultured in mineralization induction medium supplemented with the PBS were used.
Each sample was analyzed by liquid chromatography using UltiMate 3000 Nano LC systems (Thermo Fisher Scientific, USA) and ESI-column (0.075×150 mm) (Thermo Fisher Scientific). A 0.1% formic acid aqueous solution containing acetonitrile was used as a mobile phase at a flow rate of 300 nL/min. The concentration of acetonitrile was 5% for the first 5 min, increased to 40% in 95 min, then increased at a constant rate for 2 min to 90%, and maintained for 5 min. The peptides were analyzed using Q-Exactive (Thermo Fisher Scientific). Identification and quantitative analysis of the proteins were performed by peptide mass fingerprinting using Mascot Distiller v2.5, Mascot Server v2.5 (Matrix Science, USA), and UniProt on obtained MS/MS spectra.
In addition, to evaluate changes in expression levels of the proteins, the following criteria were used to narrow down the identified plasma membrane-derived and cytoplasm-derived proteins among the samples.
• Proteins whose measured values were higher in the S100-A8 group than in the control group • Proteins whose measured values in the peptide group are more than twice as high as those in the control group • Proteins whose measured values in both the peptide group and the S100-A8 group are equal to or greater than 1 (a.u.; arbitrary unit)
• Proteins whose measured values were lower in the S100-A8 group than in the control group • Proteins whose measured values in the control group are more than twice as high as those in the peptide group • Proteins whose measured values in the control group are equal to or greater than 1 (a.u.; arbitrary unit)
Each of the groups narrowed down by the above criteria was analyzed using Gene Ontology (GO) classification. The GO provides an internationally standardized GO Term, which is intended to describe biological functions. The GO Term is organized in a hierarchical structure, with the upper order representing general functions and the lower order representing more detailed functions. For example, there are three categories at the top: “Molecular function,” “Biological process,” and “Cellular component.”
The GO Term belonging to “Molecular function” and “Biological process” which represent their respective functions from the above classification were searched for the protein groups obtained in this experiment, and the functions characteristic to each protein group were examined.

[3] = tested on: exposed pulp of rat molars; test: Direct pulp capping experiment using Protein S100 family-derived peptide; type: in vivo; conditions: 4 weeks; for structure of the tertiary dentin compared to the samples treated with the peptides (HE staining): 1 μg/ml; for number of samples with tertiary dentin formation that completely sealed the exposed pulp region: micro-CT scoring, n=8 per condition, peptides 100 μg/ml, recombinant proteins 1 μg/ml, 20 μl in gelatin sponge; for closure of the surface of the exposed pulp (HE staining): representative samples with complete tertiary dentin formation
Experimental: To evaluate the effect of the Protein S100 family-derived peptide on ability of forming of the tertiary dentin, a direct pulp capping experiment was performed on rat molars using a gelatin sponge (Spongel®) soaked with 20 μl of each PBS solution containing the No. 28, No. 47, No. 32, or No. 51 peptide at a concentration of 100 μg/ml using the same way as described in the section 1) of “Materials and Methods” of the section 1 of the section I above. PBS solution containing the S100-A8 (PROSPEC, Israel), the PBS solution containing the S100-A9 (PROSPEC), wherein the S100-A8 and S100-A9 are a recombinant of the protein from which the peptide was derived, at a concentration of 1 μg/ml, and the PBS solution alone were used as controls. After 4 weeks from the capping treatment, the micro-CT imaging and image analysis were performed on the tertiary dentin formed just below the exposed pulp. An evaluation method, in which the amount of formed tertiary dentin observed in histopathological images was scored, in the direct pulp capping experiment conducted by Okamoto et al. in the past, was applied to the micro-CT images in this study, and the evaluation was performed by scoring the formed tertiary dentin [Clinical Oral Investigations 2018, 22(8):2879-2887; Journal of Dentistry 2010, 38(10):828-837]. The evaluation was performed by one person, with a score of Grade 0 in cases where the tertiary dentin was formed in only one-third or less of the exposed pulp region, Grade 1 in cases where the tertiary dentin was formed in one-third to two-thirds of the exposed pulp region, Grade 2 in cases where the tertiary dentin was formed in two-thirds or more of the exposed pulp region, and Grade 3 in cases where the formed tertiary dentin was completely covering the exposed pulp region. In addition, the same micro-CT images were analyzed using the same way as described in the section 2) of “Materials and Methods” of the section 1 of the section I above to evaluate the volume of the formed tertiary dentin. HE staining was also performed using the same way as described in the section 3) of “Materials and Methods” of the section 1 of the section I above, and histopathological evaluation of the formation of the tertiary dentin was performed. The number of samples was 8 for each condition.
as §1

exposed pulp = conditions: rat in vivo, reported in Non Patent Literature 1; cited from earlier work
pulp cells = conditions: reported in Non Patent Literature 1; cited from earlier work
[4] = mineralization induction medium, count for No. 28 peptide or S100-A8 jointly

NADKQLSFE [No. 51 peptide, Asn-Ala-Asp-Lys-Gln-Leu-Ser-Phe-Glu]
cytotoxicity compared to the control (LDH-assay) (hDPSCs [1]; 10 μg/ml): significantly lower cytotoxicity
cytotoxicity compared to the control (LDH-assay) (hDPSCs [1]; 100 μg/ml): significantly lower cytotoxicity
cytotoxicity, overall conclusion (hDPSCs [1]): comparable to that of the PBS

KLLETECPQ [No. 28 peptide, Lys-Leu-Leu-Glu-Thr-Glu-Cys-Pro-Gln]
cytotoxicity, overall conclusion (hDPSCs [1]): comparable to that of the PBS
cytotoxicity compared to the control (LDH-assay) (hDPSCs [1]; all concentrations (0.1, 1, 10, 100 μg/ml)): significantly lower cytotoxicity

NTDGAVNFQ [No. 32 peptide, Asn-Thr-Asp-Gly-Ala-Val-Asn-Phe-Gln]
cytotoxicity compared to the control (LDH-assay) (hDPSCs [1]; 1 μg/ml): significantly lower cytotoxicity
cytotoxicity, overall conclusion (hDPSCs [1]): comparable to that of the PBS

B1: S100-A8: recombinant of the protein from which the peptide was derived (PROSPEC); UniProtKB-P05109 (protein, UniProt P05109 1-93, looked up)
Protein S100-A8: MLTELEKALNSIIDVYHKYSLIKGNFHAVYRDDLKKLLETECPQYIRKKGADVWFKELDINTDGAVNFQEFLILVIKMGVAAHKKSHEESHKE
expression levels of proteins promoting MAPK signaling pathway (MAP2K1, CDH2, NRAS, MAP1, CRK, PSMB7) versus control (hDPSCs [2]; GO Term analysis): decreased
expression levels of proteins promoting NFκB signaling pathway (FLOT1, 3KCR1, LYRIC, GJA1, S100A-13, NOL3) versus control (hDPSCs [2]; GO Term analysis): more increased
cytoplasm-derived proteins whose expression levels were more decreased than in the control (hDPSCs [2]; [4]): 67 proteins
cytoplasm-derived proteins whose expression levels were more increased than in the control (hDPSCs [2]; [4]): 250 proteins
plasma membrane-derived proteins whose expression levels were more decreased than in the control (hDPSCs [2]; [4]): 97 proteins
plasma membrane-derived proteins whose expression levels were more increased than in the control (hDPSCs [2]; [4]): 158 proteins
structure of the tertiary dentin compared to the samples treated with the peptides (HE staining) [3]: sparse structure
number of samples with tertiary dentin formation that completely sealed the exposed pulp region [3]: 1 samples
closure of the surface of the exposed pulp (HE staining) [3]: completely closed by the formed tertiary dentin
tertiary dentin induction in the direct pulp capping experiment (exposed pulp): completely covers the surface of the exposed pulp
effect on pulp cells in vitro (pulp cells): activates proliferation, differentiation, and mineralization abilities

B2: S100-A9: recombinant of the protein from which the peptide was derived (PROSPEC); UniProtKB-P06702 (protein, UniProt P06702 1-114, looked up)
Protein S100-A9: MTCKMSQLERNIETIINTFHQYSVKLGHPDTLNQGEFKELVRKDLQNFLKKENKNEKVIEHIMEDLDTNADKQLSFEEFIMLMARLTWASHEKMHEGDEGPGHHHKPGLGEGTP
structure of the tertiary dentin compared to the samples treated with the peptides (HE staining) [3]: sparse structure
number of samples with tertiary dentin formation that completely sealed the exposed pulp region [3]: 2 samples
closure of the surface of the exposed pulp (HE staining) [3]: completely closed by the formed tertiary dentin
